One series addresses GST-Evi1 ZF1-7 S196A (mouse, UniProt P14404-1 21-239, S196A). Put plainly: EMSA; EMSA as in cited ref. 6; native 5% acrylamide gel; buffer, salt, pH and temperature not stated. The settings on record: protein: recombinant; tags: GST (N-terminal, pGEX); label: 5' IRDye. In general terms: Mobility shift assays separate free from complexed probe on a gel.
In a further series the target is GST-Evi1 ZF1-7 WT (mouse, UniProt P14404-1 21-239). The series is described as above. The note with it: protein: recombinant; tags: GST (N-terminal, pGEX); label: 5' IRDye.

One molecule from publication PMC3680417, “Phosphorylation of the Leukemic Oncoprotein EVI1 on Serine 196 Modulates DNA Binding, Transcriptional Repression and Transforming Ability” can be followed below.

Sequence of GST-Evi1 ZF1-7 S196A (P14404 211-429 S386A): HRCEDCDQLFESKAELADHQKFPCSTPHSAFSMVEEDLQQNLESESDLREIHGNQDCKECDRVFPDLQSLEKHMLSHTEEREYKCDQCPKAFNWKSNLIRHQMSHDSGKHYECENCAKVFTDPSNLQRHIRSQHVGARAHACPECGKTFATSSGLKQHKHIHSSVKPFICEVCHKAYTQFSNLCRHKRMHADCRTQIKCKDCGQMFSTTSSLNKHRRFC
Sequence of GST-Evi1 ZF1-7 WT (P14404 211-429): as the sequence (P14404 211-429 S386A) above, with A176S counted along it

B1: EVI1 ZF1-7 target EMSA probe (dsDNA)
DNA 1: ACCCATGGAGCTTTGAGCCCTGTTATCTTGTCAGGGAAGTGTACCATGGA
DNA 2: TCCATGGTACACTTCCCTGACAAGATAACAGGGCTCAAAGCTCCATGGGT
With B1, the binding result with GST-Evi1 ZF1-7 S196A and with GST-Evi1 ZF1-7 WT was “binds” each time.
